Source: US20090142806A1 (Pfizer, published 2009)

What was measured:
human IL-17R-Ig = target: T1, human IL-17R-Ig (human); assay: ELISA, IL-17R-Ig coated at 1.5 µg/ml, serial dilutions of biotin-conjugated IL-17F
T1 construct: also called IL-17R-IgG; IL-17R-Ig fusion protein
Method: (§1) After washing, saturating concentrations of avidin-horseradish peroxidase (HRP) were added, and plates were incubated for an additional 1 h at RT. Unbound avidin-HRP was washed using PBS/1% BSA, and the ELISA was developed using TBM.

human IL-17RC-Ig = target: T2, human IL-17RC-Ig (human); assay: ELISA, IL-17RC-Ig coated at 1.5 µg/ml, serial dilutions of biotin-conjugated IL-17F
T2 construct: also called IL-17RC-IgG; IL-17RC-Ig fusion protein
T2 sequence (chain, as listed by the source limits assumed): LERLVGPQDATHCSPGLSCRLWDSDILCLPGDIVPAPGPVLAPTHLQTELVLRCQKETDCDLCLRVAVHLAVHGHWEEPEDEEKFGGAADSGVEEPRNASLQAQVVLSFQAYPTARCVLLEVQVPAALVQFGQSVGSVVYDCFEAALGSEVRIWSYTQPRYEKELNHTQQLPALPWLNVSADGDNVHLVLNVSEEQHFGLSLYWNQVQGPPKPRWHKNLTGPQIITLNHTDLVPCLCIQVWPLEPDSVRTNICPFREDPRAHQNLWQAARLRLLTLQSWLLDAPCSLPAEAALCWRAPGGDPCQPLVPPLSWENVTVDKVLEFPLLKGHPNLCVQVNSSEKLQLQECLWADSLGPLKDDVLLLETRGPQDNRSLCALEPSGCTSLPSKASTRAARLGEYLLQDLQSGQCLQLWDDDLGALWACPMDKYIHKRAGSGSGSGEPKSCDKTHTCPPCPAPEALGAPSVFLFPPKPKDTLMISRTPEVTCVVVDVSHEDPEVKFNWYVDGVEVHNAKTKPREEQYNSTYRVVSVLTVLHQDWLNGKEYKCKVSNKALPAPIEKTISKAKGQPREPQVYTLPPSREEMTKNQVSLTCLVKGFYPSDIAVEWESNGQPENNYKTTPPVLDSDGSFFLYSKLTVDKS
Method: as §1

T1 sequence (chain, as listed by the source limits assumed): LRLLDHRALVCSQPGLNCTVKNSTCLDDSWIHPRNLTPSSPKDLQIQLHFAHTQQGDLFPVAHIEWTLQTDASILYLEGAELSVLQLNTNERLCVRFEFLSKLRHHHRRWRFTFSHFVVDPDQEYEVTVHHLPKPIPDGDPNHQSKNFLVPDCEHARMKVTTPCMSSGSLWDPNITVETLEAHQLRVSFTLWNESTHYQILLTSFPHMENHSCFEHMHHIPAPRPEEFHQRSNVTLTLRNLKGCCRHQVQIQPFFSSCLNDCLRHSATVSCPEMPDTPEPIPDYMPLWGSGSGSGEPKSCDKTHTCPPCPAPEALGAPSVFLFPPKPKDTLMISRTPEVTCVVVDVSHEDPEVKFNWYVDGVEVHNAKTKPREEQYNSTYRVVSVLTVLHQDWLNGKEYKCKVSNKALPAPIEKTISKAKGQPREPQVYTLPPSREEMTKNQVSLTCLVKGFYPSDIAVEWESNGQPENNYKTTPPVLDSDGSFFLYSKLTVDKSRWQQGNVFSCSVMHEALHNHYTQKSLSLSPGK

B1: human IL-17F (IL-17F homodimer) (ligand)
chain: RKIPKVGHTFFQKPESCPPVPGGSMKLDIGIINENQRVSMSRNIESRSTSPWNYTVTWDPNRYPSEVVQAQCRNLGCINAQGKEDISMNSVPIQQETLVVRRKHQGCSVSFQLEKVLVTVGCTCVTPVIHHVQ
modifications: biotin-conjugated in the receptor-binding and inhibition ELISAs (sites not given)
notes: Used as purified protein, as recombinant conditioned media (293, COS) and as natural protein from T cell conditioned media; also called IL-17F/F; interleukin-17F
Work on B1 yielded an EC50 (human IL-17R-Ig) of 1.23 mg/L and an EC50 (human IL-17RC-Ig) of 15 mg/L.
